Source: US20130195874A1 (ADRENOMED, published 2013)
Read-outs that look alike come from different tables or passages of the source.

T1: human recombinant adrenomedullin receptor (CRLR+RAMP3) (human)
T1 chain: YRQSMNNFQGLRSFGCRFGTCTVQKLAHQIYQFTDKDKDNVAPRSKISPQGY

B1: mouse adrenomedullin (mADM 1-50) (peptide)
peptide: YRQSMNQGSRSNGCRFGTCTFQKLAHQIYQLTDKDKDGMAPRNKISPQGYNH
B2: human adrenomedullin (hADM 1-52) (peptide)
peptide: T1 chain
B3: NT-H (antibody, V domains shown)
VH: QVQLQQSGAELMKPGASVKISCKATGYTFSRYWIEWVKQRPGHGLEWIGEILPGSGSTNYNEKFKGKATITADTSSNTAYMQLSSLTSEDSAVYYCTEGYEYDGFDYWGQGTTLTVSS
VL: DVLLSQTPLSLPVSLGDQATISCRSSQSIVYSNGNTYLEWYLQKPGQSPKLLIYRVSNRFSGVPDRFSGSGSGTDFTLKISRVEAEDLGVYYCFQGSHIPYTFGGGTKLEIK
notes: also called NT-H antibody; antibody NT-H

How the values were obtained:
[1] = target: ADM (human or mouse not stated for this entry); experiment: cell-based or functional assay
[2] = target: T1, human recombinant adrenomedullin …; experiment: cell-based or functional assay
[3] = target: T1, human recombinant adrenomedullin …; experiment: cell-based or functional assay
[4] = target: B2; experiment: SPR (Biacore 2000), antibody captured via anti-mouse Fc, Adrenomedullin in solution
Method: Reversible immobilization of the antibodies was performed using an anti-mouse Fc antibody covalently coupled in high density to a CM5 sensor surface according to the manufacturer's instructions (mouse antibody capture kit; GE Healthcare). (Lorenz et al.,” Functional Antibodies Targeting IsaA of Staphylococcus aureus Augment Host Immune Response and Open New Perspectives for Antibacterial Therapy”; Antimicrob Agents Chemother. 2011 January; 55(1): 165-173.)

[5] = target: B2; experiment: cell-based or functional assay
[6] = target: B2; experiment: cell-based or functional assay

Molecule: Non specific mouse IgG (antibody)
- Maximal inhibition of ADM bioactivity (ADM-Bioassay) (%) [1]: 0%

Molecule: B1
- EC50 (read off the curve) [2]: ~0.08 nM

Molecule: B2
- EC50 (read off the curve) [3]: ~1 nM

Molecule: B3
- Kd [4]: 5.9 nM
- IC50 (read off the curve) [5]: ~2 µg/mL
- stability of hADM in human citrate plasma with NT-H against hADM alone [6]: 2.3 fold
